assay: soluble on expression in E. coli; label from the status in PepcDB or PDB records

Sequence	soluble on expression in E. coli
MAVENITMPQLGESVTEGTISKWLVNVGDHVNKYDPLAEVMTDKVNAEVPSSFTGIVKELIAGEGDTLAVGEVVCVIQVEGADEVAATAVEEKTKEEPKAEVNTPEKAPKAKQPTDGKPRFSPAVLKLAGEHNVDLDLVEGTGANGRITRKDILKLVESGNIPQAGAVKKEEAVAAVVEARPEAPKAAPVAQKVEAAKPVSVPTMPGDIEIPVTGVRKAIAANMLRSKHEAPHAWMMIEVDVTNLVSYRNSIKGDFKKREGFNLTFFAFFVKAVAQALKEYPQINSMWAGDKIVQKKDINLSIAVATEDELFVPVIKHADEKTIKGIAREITELAGKVRTKSLKADEMQGGTFTINNTGSFGSVQSMGIINYPQAAILQVESIVKRPVIMENGMFGARDMVNLCLSLDHRVLDGLICGKFLGRVKEILENTSENNTSVY	not soluble
MAVGGGIGGLLLVGLFLLLGGNPAEIDQVLGGDQTQIESGESTGAGDFDHCQTGADANASDDCRLYYTSFSVNEMWQTLLPAQAGIEYTEPTLTLFKNSTQTGCGFASASTGPFYCPSDQDAYFDLTFFDQMRQFGAENAPLAQMYIVAHEYGHHVQNLEGTLGLSNYNDPGADSNAVKIELQADCYAGIWANHSSEGPDPLLQPITESELDSALLAASAVGDDNIQQRSGGDVNPESWTHGSSQQRKDAFLAGYNTGQMSACDFLGRGVYNDA	not soluble
MAVKINDLTLPKEKLENEYQVVQVSLWQKDGEALGWTYECVLPKLRFEKISVKVKSEAPVITKETLDEKGMAIVRFDNLMITPWGRVNGQFVSYGLTATAYKATLVPNK	not soluble
MAVRFASLGSGSDGNALLVESTDGTTSTRILLDCGFGIRETVRRLERLGCAPASLDAILVTHEHGDHIGSAYAFAAKYSVPVWTSHGTYRATASLRGADRAAVRFCRADDAFSIGDLRILPYTVPHDAREPLQFIFDDGARRLGVLTDAGMSTEYLCGHLTGLHAFVLECNHDREMLANSAYPWSLKQRIGGDFGHLANDIAAAILARVRHDGLHTVVAAHLSKQNNTPELAAAAIASALGVPAGDVPIADQEAGLGWQAVLEHHHHHH	not soluble
MAVSATGFEGFEKRLEISFFETTDFLDPQGKSLRSLTKSQLDEILTPAECTIVSSLTNSFVDSYVLSESSLFVYPYKIIIKTCGTTKLLLSIPHILRLADSLCLTVKSVRYTRGSFIFPGAQSYPHRSFSEEVALLDDYFGKLNAGSKAFVMGGSDNNPQRWHVYSASSTEESAVCDKPVYTLEMCMTGLDNIKASVFFKTNSVSASEMTISSGIRNILPGSEICDFNFEPCGYSMNSIEGDAVSTIHVTPEDGFSYASFETVGYDLKALNFKELVDRVLVCFGPEEFSVAVHANLGTEVLASDCVADVNGYFSQERELEELGLGGSVLYQRFVKTVECCSPKSTLGFC	not soluble
MAWGQIAVVSPLVNIPVNTIEQSLLRQLPGCWGCKDKDSVFRYVNQEYAELLGHASPEECIGKTDFEMSSPTTECAQEFQRQDKHVIETGESLKILDIHPYPDGRWRAHIFTKTPWRDEQGNTLGTIFYGRELTDTAVIEVGYWVCRAIGTDMNHQSIFRFSNLNPKPEKLTCREQETLFLLLYGKKPQFISQVMGISTKTVEGHVARLRNKFEANSKNELIDKAMEAGYGSVVPKTLLKHQLSVVLNGER	not soluble
MAYQRIRQPKLSDVIEQELERLIVEGTLSPGQQLPPERELAKQFEVSRPSIREAIQRLEAKRLLTRRQGGGTFVSDRIWQSFSDPLLNLLSSHSETQLDLLEARHALEGICAYFAALRGTEEDFARIQHCVTRIAEAQALNNVDEEAERVMAFLIAITEAAHNVVLLHIVRSLSPLLEQNIRQNFKLLHRRPEAVEKVSKHRANIVDAIVSGQPEKAREMSHSHLAYIEETLLDLTREQTRRERSLRRIQQGNEPQ	soluble
MAYQVTTFYHFTRLNCLAEKQSRWQELGDRLGLKGTILLAEEGVNATIAGESAAIEEMVKIMAADLGLTSVPQRHSWAKTIPFQRMKVKIKPEIVSLGQPQVNPEKQVGTYVSPQQWNQLLQDPDVVVIDTRNDYEVAIGTFQGAVNPCTKKFRQFPDYVKNNLDQQKNKKVAMFCTGGIRCEKASAYLLEEGFAEVYHLRGGILHYLETIAPEESLWQGECFVFDERVAVQEGLKVGSHALCDHCGYPLRVGDLAEIRYAVRHCPQCGLTVAVSNELLEHHHHHH	soluble
MAYWLVKSEPSVWSWDQQVAKGAAGEAWTGVRNHSAKLHMVAMRRGDRAFYYHSNEGKEIVGIAEIIREAYPDPTDASGKFVCVDIKADKPLKTPVTLAAVKAEPRLADMALMKYSRLSVQPVTAEEWKLVCKMGGLLEHHHHHH	not soluble
MCAHEGKQYKNDTTFISQGSFRMKCVTFKNLTSTLEVISCITPAGVEISIGTQLEEGDKVFECTPGNVTLKSTPGQTGKCRGVYSVGDTWVEDSFRLLCEPYGKVNLKSCISKEGVEIPLGEARRVPAGYAMECVTVNGNVALQTAKTFDCETGTGEIKKFGDTWNEGNFVRRCANYGVSAIIGCYADGVGSIGLNQNMTSGDFLYMCINQNEQFKFRTLKAT	not soluble
MCEATYGGASPQIRRQRFVILGMSDDPHPFFPPAAMTAIASGKIFSGGKRHHEIVRGLLPADAEWIDITVPLDDVFARYREYEEIVVFASGDPLFFGFANTVMNRLPDAVVTVYPTFNSLQMLAHALRMPYHDMRIVSLTGRPWHEFDRALIERAEKIGILTDHEHTPSAIAMRMLDYGYEDYTMSVGTRMGNPQEQCLDTFSLREAADRDFERPNCVILSATRPFVCSRAPLGLSESAFMPLNGRTKMITKMPFRLVSLSCLELHRASSFWDIGFCTGSVSIEAKLNFPHLHITAFEIRPEGAELMPVNSRRFGAPGIAYRIGDFMEEDISSLAPPDAVFIGGHGGRLVEMIAKVHSVMTKGGLLVFNSVSEESRHLFLTGIEACGMELLSSIRLTADGNNPIDILQARKKE	not soluble
MCFSFIMPPAMADILDIWAVDSQIASDGSIPVDFLLPTGIYIQLEVPREATISYIKQMLWKQVHNYPMFNLLMDIDSYMFACVNQTAVYEELEDETRRLCDVRPFLPVLKLVTRSCDPGEKLDSKIGVLIGKGLHEFDSLKDPEVNEFRRKMRKFSEEKILSLVGLSWMDWLKQTYPPEHEPSIPENLEDKLYGGKLIVAVHFENCQDVFSFQVSPNMNPIKVNELAIQKRLTIHGKEDEVSPYDYVLQVSGRVEYVFGDHPLIQFQYIRNCVMNRALPHFILVECCKIKKMYEQEMIAIEAAINRNSSNLPLPLPPKKTRIISHVWENNNPFQIVLVKGNKLNTEETVKVHVRAGLFHGTELLCKTIVSSEVSGKNDHIWNEPLEFDINICDLPRMARLCFAVYAVLDKVKTKKSTKTINPSKYQTIRKAGKVHYPVAWVNTMVFDFKGQLRTGDIILHSWSSFPDELEEMLNPMGTVQTNPYTENATALHVKFPENKKQPYYYPPFDKIIEKAAEIASSDSANVSSRGGKKFLPVLKEILDRDPLSQLCENEMDLIWTLRQDCREIFPQSLPKLLLSIKWNKLEDVAQLQALLQIWPKLPPREALELLDFNYPDQYVREYAVGCLRQMSDEELSQYLLQLVQVLKYEPFLDCALSRFLLERALGNRRIGQFLFWHLRSEVHIPAVSVQFGVILEAYCRGSVGHMKVLSKQVEALNKLKTLNSLIKLNAVKLNRAKGKEAMHTCLKQSAYREALSDLQSPLNPCVILSELYVEKCKYMDSKMKPLWLVYNNKVFGEDSVGVIFKNGDDLRQDMLTLQMLRLMDLLWKEAGLDLRMLPYGCLATGDRSGLIEVVSTSETIADIQLNSSNVAAAAAFNKDALLNWLKEYNSGDDLDRAIEEFTLSCAGYCVASYVLGIGDRHSDNIMVKKTGQLFHIDFGHILGNFKSKFGIKRERVPFILTYDFIHVIQQGKTGNTEKFGRFRQCCEDAYLILRRHGNLFITLFALMLTAGLPELTSVKDIQYLKDSLALGKSEEEALKQFKQKFDEALRESWTTKVNWMAHTVRKDYRS	soluble
MCGRFTLTVDLLALQDRFHFRYQGSLTPRFNIAPGQDVLTIVAEGGERVGKMMRWGLVPFWAKDARIGAKMINARAETVDEKASFRHAFKRRRCLILADGFFEWKKEGTKKVPYRFTLKTGEPFAFAGLWERWEGASDPIETCTIMTTKANELIAPIHDRMPVMLPYERHDDWLDPRLDDSEYLKSLLSPYPSGEMRMYEVAPLVNSPKNDVIACIEPVDSRSMEGT	not soluble
MCINIRLEKTRDIQSIHAITIAAFLDAPHTDHTEQFIVDALRDSGALSVSLIAEDSSKIIGHVALSPVTISDGSKDWYGLGPISVVPTDQNKGIGSKLMHAALRELNNLNANGCVLLGDPNYYRRFGFEPIGGLVLPDVPPEYFQATLLKGSYPTGVVTYHESFSAQS	not soluble
MCMPLLPGEQQHLLIDRLEKRVPTAAGEGATTKL	not soluble
MCMTRQPAVAGQFYTDEPKRLRGDLQRMIPAETMKQRVKGIVAPHAGYVYSGHVAGAVYGAIEIPSTVVILGPNHHGFGAAAALYPEGEWLTPLGSVPIDVRLSQLVQKHVPLVEPEMSAHRFEHSLEVQVPFLQYRADVSIVPICLGFGDYERCRLLGEGIARAIREFGEDVLIVASSDMTHYESADAARAKDEQAIAEVLALNPEGLVQICRRKNITMCGVIPATVMLVTAKALGASKAELISYATSGDVTGDNRQVVAYAAMAVYLEHHHHHH	not soluble
MCMYGGIYVNNGYSPMSSNQQNVSVEHDIIMRGRRVIDITGVKQVESFDSEEFLLETVMGFLTIRGQNLQMKNLDVEKGVVSIKGKVHEMLYIDENQGEKTKGFFSKLFKLEHHHHHH	soluble
MCSSDSLQLHNVFVYGSFQDPDVINVMLDRTPEIVSATLPGFQRFRLKGRLYPCIVPSEKGEVHGKVLMGVTSDELENLDAVEGNEYERVTVGIVREDNSEKMAVKTYMWINKADPDMFGEWNFEEWKRLHKKKFIETFKKIMECKKKPQGQGNDDISHVLREDQ	soluble
MDAAIKKIPYGMTDFERIILENYYYVDKTQYIAKVEKVTSFFFFVRPRRFGKSLFLNMLGLYYDINQKDKFEKIFGNLYIGKHPTPDRNKYLVLTLNFSSVAANMDRLEETFNTYCKIVMDGFAERNAHLLGKEAVEKLHELKTGDALLGSLCQSAQNKGQKIYLILDEYDNFANNILVDYGNKRYRSITHGSGFFRSFLKVVKDYSSSVIERIFLTGVSPVTMDDLTSGFNIADNYSSSPIFNNMMGFNEQEVRTLIDYYKSYRELPHTTDELITIMKPWYDNYCFAMKALKEPSMYNSDMVLYFMNHYMLNEDIPDNMLDANIRTDYNKLRHLIHVDKTFGENASVVQEIVEKGSTTGIIANSFPAEDIIKPENFKSLLYYYGMLTISGMEMGEPILSVPNWAVREQLYGYMADIYKDSADLYLETDKLVDRMKRMAYKGEWENCFTYIADRLNAQSSVRDFIEGEAYVKTFILAYLGLTHYYIARPEYESNKGYADIFLQPRLLQLPDMVYSYCIEVKYAKRDASDTEIEKLLSNAKIQLKQYAASEWIHQDKGTTELKSIALVFQGWKLVRVEEV	not soluble
MDAGYFRGANSEQDGRFSDKEKKLLKTMKFEPQLEQKIDLNRCNMDVIKPWITARVNDILGMEDDVVVEYILSQIDDKNLNPKLLQINVTGFLNARRAREFVGDLWNLLIEANASEDGIPASLVNQKMAEMKTNDRDEKGDDREDNDWTNRYKTLSNGRYTGPAREKAVRDDRIPARALSPRKTPPRRNASPGGDGGGGSPAARRGGSAGNRRRSPPRRGSPRRGSPRRDTRRSPPRRRGSPPARGGDRRDRREDRRPVRDEKEREEESRRREIERKKRHEEAELRQKAIASVAARAKSGSPRRRRSPSASKSPPPARRRRSPSQSKSPAPKRAKSRSKSPPAPARRRRSPSASKSPPPAPKRAKSRSKSPPARRRRSPSASKSPPAPRRRRSPSKSRSPAPKREIPPARRRRSPSASKSPPAPKRAKSRSKSPPAPRRRRSPSQSKSPAPRRRRSPSKSPQAPRRRRSPSGSKSRSPRRRRSPAAAPRRRQSPQRRRSPRRRRSPSSSSRSRSPPPPPRRPRQDSEQQAPVAVKSPEMKKRRPNDTDSDVSVDSEAEEERRRKKAKKEKKAAKKHKKEKKSKKHRKRRSPSASESGSESD	soluble

From the DeepSol protein solubility set
